Measured values taken from US5985630A, “Assay for detecting inhibitors of aminoacyl-tRNA synthetases” (Zeneca Limited, priority 1993, dated 1999).

What was measured:
Assay type in all cases: biochemical, E. coli
CC(C)[C@H](N)C(=O)O = tested on: T1, CC(C)[C@H](N)C(=O)O; experiment: Colorimetric assay based on valine as substrate (valine-based assay of the invention); details: other: non-cognate amino acid substrate of ITRS; pH 7.4; 37.0 °C
T1 construct: endogenous in cells; enzyme partially purified in house
Experimental: (§1) 2. Measurement of ITRS activity using a Colorimetric Assay based on using Valine as Substrate
(§2) Incubations were set up in quadruplicate (as above) with a final volume of 200 μl as described below. Stock reagents used in the method were as follows:
(§3) Prepared as described above. The specific activity of the enzyme used in the present example was approximately 145 nM of product formed/minute/mg, and was about 5%-10% active. The enzyme was diluted as appropriate. It will be appreciated that the enzyme amounts in the assay can be adjusted according to the purity of the enzyme used.
(§4) The assay mixture for a final volume of 200 μl was composed of:
(§5) The standard assay (in 200 μl) was carried out in quadruplicate in Eppendorf microcentrifuge tubes. The ingredients were pre-incubated for 2-3 minutes at 37° C. and the reaction started by addition of 20 μl of appropriately diluted enzyme extract (as described above).
(§6) Thus the final reaction contained reagents in the following concentrations:
(§7) 0.12 mg of mixed tRNA species from E. coli (as described above) HPLC purified from […] available from by Sigma (UK) Ltd 1 unit/μl of inorganic pyrophosphatase and
(§8) an appropriate concentration of ITRS (for example […] of the enzyme as described above).
(§9) The samples were incubated at 37° C. for 20-60 minutes. […] The optical absorbance is then measured at a wavelength of 630 nm using a spectrophotometer.

[1] = tested on: T2, Nc1ncnc2c1ncn2[C@@H]1O[C@H](COP(=O)(O)OP(=O)(O)OP(=O)(O)O)[C@@H](O)[C@H]1O; experiment: as above; details: other: colorimetric assay; pH 7.4; 37.0 °C
T2 construct: endogenous in cells; enzyme partially purified in house
Experimental: as §1, §2, §3, §4, §5, §6, §7, §8, §9

CC[C@H](C)[C@H](N)C(=O)O = tested on: T3, CC[C@H](C)[C@H](N)C(=O)O; experiment: 3H-isoleucine-based radiolabelled (standard radiometric) assay; details: other: 3H-Ile assay; pH 7.4; 37.0 °C
T3 construct: endogenous in cells; enzyme partially purified in house
Experimental: (§10) 2. Measurement of ITRS Activity using a ^3 H-Isoleucine-Based Radiolabelled Assay
(§11) The activity of ITRS during fractionation was monitored using conditions based on the method described by Steinmetz and Weil (7), and as described below. Stock reagents used in the method are as follows:
as §3, §4
(§12) The standard assay (in 200 μl) was carried out in quadruplicate in Eppendorf microcentrifuge tubes. The ingredients were preincubated for 2-3 minutes at 37° C., and the reaction started by addition of approximately 20 μl of the appropriately diluted enzyme extract as described above.
(§13) The final reaction contained reagents in the following concentrations:
(§14) 0.1% bovine serum albumin […]
(§15) 200 μl of the reaction mixture was pipetted onto 1.5 cm^2 cellulose 3MM filters. […] The dried filters were placed in 20 ml scintillation vials and the radioactivity counted in 15 ml Optiphase.
(§16) The inhibition constants of two compounds were measured and the results compared with the values obtained using the standard ^3 H-isoleucine assay.

[2] = tested on: T2, Nc1ncnc2c1ncn2[C@@H]1O[C@H](COP(=O)(O)OP(=O)(O)OP(=O)(O)O)[C@@H](O)[C@H]1O; experiment: as above; details: other: 3H-Ile assay; pH 7.4; 37.0 °C
Experimental: as §10, §11, §3, §4, §12, §13, §14, §15, §16

“E. coli ITRS (isoleucyl-tRNA synthetase) (Escherichia coli K-12)” showed a Km (CC(C)[C@H](N)C(=O)O) of 500 µM, a Km [1] of 48 µM and a Km (CC[C@H](C)[C@H](N)C(=O)O) of 4.3 µM. The Km [2] was 47 µM.
